This note sets out measurements from patent US20100260668A1 (published 2010).

This assay deals with VEGF (VEGF 1-165 aa, R&D Systems 293-VE-010) (UniProt P15692 27-191). Briefly: Direct bind ELISA, VEGF coated on plate.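 Further: ELISA screening of antibodies for binding to the plate-coated target antigen.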
VEGF (VEGF 1-165 aa, R&D Systems 293-VE-010), sequence (P15692 other isoform, or with tags, fused parts or gaps limits assumed): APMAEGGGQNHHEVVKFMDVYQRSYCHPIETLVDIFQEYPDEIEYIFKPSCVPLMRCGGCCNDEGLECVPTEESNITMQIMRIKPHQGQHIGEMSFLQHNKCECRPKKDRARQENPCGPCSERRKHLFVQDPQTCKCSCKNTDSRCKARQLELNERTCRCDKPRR

B1: DVD465 (bispecific antibody, IgG1)
VH: EVQLVESGGGLVQPGGSLRLSCAASGFTFTDNWISWVRQAPGKGLEWVGYISPNSGFTYYADSVKGRFTISADTSKNTAYLQMNSLRAEDTAVYYCARDNFGGYFDYWGQGTLVTVSSASTKGPEVQLVESGGGLVQPGGSLRLSCAASGFTISDYWIHWVRQAPGKGLEWVAGITPAGGYTYYADSVKGRFTISADTSKNTAYLQMNSLRAEDTAVYYCARFVFFLPYAMDYWGQGTLVTVSS
VL: DIQMTQSPSSLSASVGDRVTITCRASQDVSTAVAWYQQKPGKAPKLLIYSASFLYSGVPSRFSGSGSGTDFTLTISSLQPEDFATTYYCQQSYTGTVTFGQGTKVEIKRTVAAPDIQMTQSPSSLSASVGDRVTITCRASQDVSTAVAWYQQKPGKAPKLLIYSASFLYSGVPSRFSGSGSGTDFTLTISSLQPEDFATYYCQQSYTTPPTFGQGTKVEIKR
notes: HC linker short, LC linker short; also called DVD465H; DVD465L
Take B1: the response was half-maximal at 396 nM (EC50).

B2: DVD466 (bispecific antibody, IgG1)
VH: EVQLVESGGGLVQPGGSLRLSCAASGFTISDYWIHWVRQAPGKGLEWVAGITPAGGYTYYADSVKGRFTISADTSKNTAYLQMNSLRAEDTAVYYCARFVFFLPYAMDYWGQGTLVTVSSASTKGPEVQLVESGGGLVQPGGSLRLSCAASGFTFTDNWISWVRQAPGKGLEWVGYISPNSGFTYYADSVKGRFTISADTSKNTAYLQMNSLRAEDTAVYYCARDNFGGYFDYWGQGTLVTVSS
VL: DIQMTQSPSSLSASVGDRVTITCRASQDVSTAVAWYQQKPGKAPKLLIYSASFLYSGVPSRFSGSGSGTDFTLTISSLQPEDFATYYCQQSYTTPPTFGQGTKVEIKRTVAAPDIQMTQSPSSLSASVGDRVTITCRASQDVSTAVAWYQQKPGKAPKLLIYSASFLYSGVPSRFSGSGSGTDFTLTISSLQPEDFATTYYCQQSYTGTVTFGQGTKVEIKR
notes: HC linker short, LC linker short; also called DVD466H; DVD466L
B2 returned an EC50 of 2.61 nM.

B3: DVD471 (bispecific antibody, IgG1)
VH: EVQLVESGGGLVQPGGSLRLSCAASGFTFTDNWISWVRQAPGKGLEWVGYISPNSGFTYYADSVKGRFTISADTSKNTAYLQMNSLRAEDTAVYYCARDNFGGYFDYWGQGTLVTVSSASTKGPSVFPLAPEVQLVESGGGLVQPGGSLRLSCAASGFTISDYWIHWVRQAPGKGLEWVAGITPAGGYTYYADSVKGRFTISADTSKNTAYLQMNSLRAEDTAVYYCARFVFFLPYAMDYWGQGTLVTVSS
VL: DIQMTQSPSSLSASVGDRVTITCRASQDVSTAVAWYQQKPGKAPKLLIYSASFLYSGVPSRFSGSGSGTDFTLTISSLQPEDFATTYYCQQSYTGTVTFGQGTKVEIKRTVAAPSVFIFPPDIQMTQSPSSLSASVGDRVTITCRASQDVSTAVAWYQQKPGKAPKLLIYSASFLYSGVPSRFSGSGSGTDFTLTISSLQPEDFATYYCQQSYTTPPTFGQGTKVEIKR
notes: HC linker long, LC linker long; also called DVD471H; DVD471L
In turn, B3 showed an EC50 of 30.1 nM.

B4: DVD472 (bispecific antibody, IgG1)
VH: EVQLVESGGGLVQPGGSLRLSCAASGFTISDYWIHWVRQAPGKGLEWVAGITPAGGYTYYADSVKGRFTISADTSKNTAYLQMNSLRAEDTAVYYCARFVFFLPYAMDYWGQGTLVTVSSASTKGPSVFPLAPEVQLVESGGGLVQPGGSLRLSCAASGFTFTDNWISWVRQAPGKGLEWVGYISPNSGFTYYADSVKGRFTISADTSKNTAYLQMNSLRAEDTAVYYCARDNFGGYFDYWGQGTLVTVSS
VL: DIQMTQSPSSLSASVGDRVTITCRASQDVSTAVAWYQQKPGKAPKLLIYSASFLYSGVPSRFSGSGSGTDFTLTISSLQPEDFATYYCQQSYTTPPTFGQGTKVEIKRTVAAPSVFIFPPDIQMTQSPSSLSASVGDRVTITCRASQDVSTAVAWYQQKPGKAPKLLIYSASFLYSGVPSRFSGSGSGTDFTLTISSLQPEDFATTYYCQQSYTGTVTFGQGTKVEIKR
notes: HC linker long, LC linker long; also called DVD472H; DVD472L
In the case of B4, the response was half-maximal at 9.22 nM (EC50).
